Measured values reported in a protein production outcome set (Wang et al. 2014).

experiment: label from the status in PepcDB records

Row | Sequence | protein production
1 | MPSGQALRISRTCRLNAHPRFDRLWRSPTPIQVSAMIVAFRLFLACLGLFLCLSSPLAAQVSLYSGIAGTSDESAGGDLAEAIRAASEAGASVIVIDSAGRVAAAGTEAGAVETARVDPMGEASQLMKAQEKVSDFIGALRSRLEALPYSIFEVQYILRQTSPDGRIATYAEVLAINLVLLLIGRWMSIEIYGKRIARKHVVSRIREAPRGYREKMPFLVFRFVMGVGATLFAMVFAFIIGFLIFGPMQDLSIQFTVTAIFTAYFLARTASDLWRMVLSPYLSQYRLPPFSDRDAKRLYLWASLLATYDISSELFSTWVADFGLNYNVYAMVYGVLTGVGALGNVLMVLFNGRAISNAIRGGRTKDEVSWILRLVSVAWAPVVLFYMVFGWLQLAFDLVLERPVHIPLMAGTYGIFMSVVVAYGAMNYLLERYFDRTRQVKELNAALAEAEAAEDLSMTGVSAQRHHIATFEDLARRVAGILAFVVGTYALVLIWNPEMDWTGDLPIDRALDVMVIIFLGYIVFHFFRIWIDSKIAEETVDVPEGELGDEGGGTSASRLATLLPLFRGAILAVVVVSIVLIALMEVGINVSPLFAGAGVVGLAVGFGSQTLVRDIFSGAFFLVDDAFRKGEYIDIGDVKGTVEKISVRSFQLRHHLGALHTIPFGEIKVLTNFSRDWVIMKLPLRVTYDTDVEKVRKLIKNLGQELLSDPVIGDNFIQPLKSQGVIEMQDSAMIIRVKFMTKPGDQWLVRKRVYQDIRELFAREGIKFAHREVTVRLADGQEAAKMTPQQREAVTGAVQAAIDEDVLDDMMDDDR | failed
2 | MPSIIEAKHQGQKQSKNELKQARQSVIEQIQDLVPSSTVTHEYDFLFSGFALELPAHQIPSILGIDGVHAVYPNIEYEVETDFDEVVIEKDAYSPEMLDSAPFIGANDAWEAGYTGEGITVAILDTGVDYTHPDLVHAFGDYKGWDFIDNNDDPQETPPGDPRGIETTHGTHVAGTVAANGLIKGVAPDANLLAYRVLGPGGRGSTAGVIAGIERAVQDGADIMNLSLGNTLNDPDFATSIALDWAMAEGVVAVTSNGNSGPNNWTVGSPGTSRDAISVGATRLPYNKYKASVFTSDGIDYPSADIMGFPSDEELLELDGETYEYAFAGLGKPGDFEGVDVEGKIALIVRGEIPFVEKAENAKAAGAVGAIIYNNVAGVQPTVPGLAIPTIMLSNEDGLKMRNELENGQNTVTFSIEFDKLVGETVADFSSRGPVMHTWMIKPDVSAPGVAIVSTIPTHQPDDPYGYGSRQGTSMASPHVAGAAALLLEAHPNWGVDHVKAALMNTAENLVDENGNRYPHNTQGAGSIRIVDAIESETLVTPGSHSFGTFTKERGKQVERQHFTIHNLSNKRKTYQFDVQFAGNPDGIKVKTSKNLRVQPGKTQKINFNVQVDARKLDPGYYEGTIIVSDGSQTVEVPTILFVSEPDYPRVTTFDLDIDENGVLFGSAYLPNGAEEFGLWIYTRDTLEYVTSAAVVQNIGKGYHDVTWDTTELAPGRYYVFAYAERLGKTDFVLGDEIVVKLEHHHHHH | failed
3 | MPSLGCCYIMGGTVLWAIAAELFFESMNLITWLADFSRGHCVGICAALVPSILLWTTICAVLIALGQPRWSVNTAYVATLTVCGVMVLHVASWFSIGVITPVTFILLGLSLSCGSLATLFWRYSSQWQKFCHSGLRETIKAKWPQTLKI | failed
4 | MPSLTTLRSRELGPETFIPYVRHVDESTIALDSRALMVMIALEGVSFETADILDLNALHRDLNTLYRNIADERLALWTHLIRRRDNSYPEGTFATPFSAALNDKYRERMVGEDLFRNDLYLSILWSPARDPADKAAKLLSRLRRARRVGTELDEGALKHLRDKVIDVTAALRRFEPRVLTLYEHDGLMFSEPSEVLHQLVGGRREPIPLTEGHIASAIYSDRVIVGRETIEIRHEADSRYAGMLSFKEYPARTRTGMLDAVLTSPFELILAQSFSFVSKADARMIMGRKQNQMVSSGDKAASQIEELDGAMDDLESNRFVFGEHHLTLSVFAPSVKELTDNLAKARASMTSGGAVVAREDLGLEAAWWAQLPGNFRYRARSGAITSRNFAALSPFHSYPLGQKDGNEWGPAVALLKTASGSPYYFNFHYGDLGNTFVCGPSGAGKTVLLNFMLSQLEKHDPHVVFFDKDRGADLYVRAAGGTYLPLKNGIPTGCTPLKALELTPENKVFLTRWVGKLVGSATRELSVTELRDISSAIDGLADLPVERRTIGALRTFLDNTNPEGIAARLRRWERGGPLGWVFDNVIEDIGFGEFGGGKLVGYDMTDFLDNEEIRAPLMAYLFHRVEQLIDGRRIIIVIDEFWKALQDEGFRDLAQNKLKTIRKQNGLMLFATQSPRDAIVSPIAHTIIEQCPTQIFLPNSRGNHGDYVDGFKLTEREFELVARELSIESRRFVLKQGHNSVVAELDLKGLDDELAILSGRTANVELADAIRAEVGSNAKDWLPVFQQRRSATLEHHHHHH | failed
5 | MPSPTVTSPQVAVNDIGSSEDFLAAIDKTIKYFNDGDIVEGTIVKVDRDEVLLDIGYKTEGVIPARELSIKHDVDPNEVVSVGDEVEALVLTKEDKEGRLILSKKRAQYERAWGTIEALKEKDEAVKGTVIEVVKGGLILDIGLRGFLPASLVEMRRVRDLQPYIGKEIEAKIIELDKNRNNVVLSRRAWLEQTQSEVRSEFLNNLQKGTIRKGVVSSIVNFGAFVDLGGVDGLVHVSELSWKHIDHPSEVVQVGDEVTVEVLDVDMDRERVSLSLKATQEDPWRHFARTHAIGQIVPGKVTKLVPFGAFVRVEEGIEGLVHISELAERHVEVPDQVVAVGDDAMVKVIDIDLERRRISLSLKQANEDYTEEFDPAKYGMADSYDEQGNYIFPEGFDAETNEWLEGFEKQRAEWEARYAEAERRHKMHTAQMEKFAAAETAGRGADDQSSASSAPSEKTAGGSLASDAQLAALREKLAGSALEHHHHHH | failed
6 | MPSQKPIIVSKTSAAASSSSDRLRIIPLGGLHEIGKNTCIYEVGDEILLVDAGLAFPTDGMHGVNVVLPDMTYLRENQHRIKAMVVTHGHEDHIGGIPFHLRQLDIPIIYGPRLAMALLAGKLEEAGVVGRANVKTVQPREVVRIGQNFLVEFIRNTHSIADSFTLAIRTPLGVVIHTGDFKFDHTPVDGETFDIQRLADYGEQGVLCLVSDSTNAELPGFTPSERSVFPNLDRAFSQAQGRLIVTTFASSVHRVNMILELAKKHGRKVTVLGRSMLNVIAHARNLGYIHCSDDLFLPPKELRDHPDRDVLILTTGSQGEPLAALTRIARQEHPQVKIRQGDTVIFSANPIPGNTISVVNTIDQLMMQGAHVVYGKGAGIHVSGHGCQEDQKLMIALTKPKFFVPVHGEHRMLVQHCKTAQSMGVPPEHMIVIDNGDTVELTPESIGLGDRVTAGIELVDTSRTGLVDGKALKERQQLAEDGLVSLSALVNSQGQLVDAPTVHLRGVVTSADPRRVSVWAQKEVEMALDNRWADYCRRLPSGELDVDWVGLHAEVEVGMQRRLKRELQCVPMILCTLQSVPSVAAQPAEEDNRMRRRRSSAPIKVGAKL | failed
7 | MPSRKFADGEVVRGRWPGSSLYYEVEILSHDSTSQLYTVKYKDGTELELKENDIK | not failed
8 | MPSRQLQILIRKTLPLVPDHVLIIGESGIAFSKATNLLGQEFEHILFDGRNGIHLEALAIAAGTLKMGGTLCLVLSDWENLSQQPDQDSLRWNGNQSAIATPNFIYHFKQCIERYHFPILREESAVEFPTVFYSNEHHKNATLAQQQIIENILQAEQDIYFLTAKRGRGKSALLGMLANQIQAPVYLTAPNKSAVHSVIEFSEGDIEFIAPDELALTLQTEPEFSQSAWLLVDEAAMIPLPLLQEYSRYFQHIVFSTTIHSYEGTGRGFELKFKRKIHRTFQHFELKQPLRWQENDPLEHFIDDLLLLNAEDDFQHFDYSNITYNIEENAKNLSFPCLRGKVPEGPKGGFRYS | failed
9 | MPSSFNVESADGYERLMGRWSRKLAPMLIDFAGLADGDRVLDVGCGTGSLAFTLAETSGLQEIAAVDYSPVFVEAATRRNTDPRVSIRQADACALPFEDDRFDRAMSLLVLHFVPEAGKAVSEMRRVVRPGGVVAAAVWDHYGGMSGMRMMWDTVAMLDEGALPLRRKYCFQPMMRPGEMKESFIAQGLADVEETSLLIRMEYVSFADYWEPIAAGEGPLGKYVAGLDPAKRKAVDAAMRAAYEAGEPDGPRSFAAVAWACRGRVPGQS | failed
10 | MPSSMLSHDPVLTWSIVALATAGVIIRPMRWPEAVWAVAGAVALVALGLLSWQDALAGVRNGIDVYLFLIGMMLIAELAQREGLFDYLAAYAVEHARGSPQRLFLLVYAVGVLVTVLLSNDATAIVLTPAVYAATRAAGAAPLPYLFVCAFIANAASFVLPISNPANLVVFGEHMPHLGGWLQQFTLPSLAAILATYLVLRLALRRSLAGQTIETRVETPHLSRGGKLAAVGIGAIAIVLLTASALNVALGLPTFVCGLVTTAVVLAIARQSPVPVLKGVSWSVVPLVAGLFVMVEALSRTGVIGALGGLLREAVADAPRLGSWAAGIVTAIACNIGNNLPVGLVAGSVAADNHLPRETIAALLIGVDLGPNFSVTGSLATILWLVVLRRNQIEVTAWRFLKLGLVVTPPALIAALAAAVW | failed
